In US20020187514A1 (priority 1999, published 2002):

B1: EGF: reference compound, Epidermal Growth Factor assay (protein, UniProt P01133 23-1207, looked up)
Pro-epidermal growth factor: PQHWSCPEGTLAGNGNSTCVGPAPFLIFSHGNSIFRIDTEGTNYEQLVVDAGVSVIMDFHYNEKRIYWVDLERQLLQRVFLNGSRQERVCNIEKNVSGMAINWINEEVIWSNQQEGIITVTDMKGNNSHILLSALKYPANVAVDPVERFIFWSSEVAGSLYRADLDGVGVKALLETSEKITAVSLDVLDKRLFWIQYNREGSNSLICSCDYDGGSVHISKHPTQHNLFAMSLFGDRIFYSTWKMKTIWIANKHTGKDMVRINLHSSFVPLGELKVVHPLAQPKAEDDTWEPEQKLCKLRKGNCSSTVCGQDLQSHLCMCAEGYALSRDRKYCEDVNECAFWNHGCTLGCKNTPGSYYCTCPVGFVLLPDGKRCHQLVSCPRNVSECSHDCVLTSEGPLCFCPEGSVLERDGKTCSGCSSPDNGGCSQLCVPLSPVSWECDCFPGYDLQLDEKSCAASGPQPFLLFANSQDIRHMHFDGTDYGTLLSQQMGMVYALDHDPVENKIYFAHTALKWIERANMDGSQRERLIEEGVDVPEGLAVDWIGRRFYWTDRGKSLIGRSDLNGKRSKIITKENISQPRGIAVHPMAKRLFWTDTGINPRIESSSLQGLGRLVIASSDLIWPSGITIDFLTDKLYWCDAKQSVIEMANLDGSKRRRLTQNDVGHPFAVAVFEDYVWFSDWAMPSVMRVNKRTGKDRVRLQGSMLKPSSLVVVHPLAKPGADPCLYQNGGCEHICKKRLGTAWCSCREGFMKASDGKTCLALDGHQLLAGGEVDLKNQVTPLDILSKTRVSEDNITESQHMLVAEIMVSDQDDCAPVGCSMYARCISEGEDATCQCLKGFAGDGKLCSDIDECEMGVPVCPPASSKCINTEGGYVCRCSEGYQGDGIHCLDIDECQLGEHSCGENASCTNTEGGYTCMCAGRLSEPGLICPDSTPPPHLREDDHHYSVRNSDSECPLSHDGYCLHDGVCMYIEALDKYACNCVVGYIGERCQYRDLKWWELRHAGHGQQQKVIVVAVCVVVLVMLLLLSLWGAHYYRTQKLLSKNPKNPYEESSRDVRSRRPADTEDGMSSCPQPWFVVIKEHQDLKNGGQPVAGEDGQAADGSMQPTSWRQEPQLCGMGTEQGCWIPVSSDKGSCPQVMERSFHMPSYGTQTLEGGVEKPHSLLSANPLWQQRALDPPHQMELTQ
modifications: Pro-epidermal growth factor
B2: rC5a, Human: reference compound, Complement C5a assay (protein, UniProt P01031 678-751, looked up)
C5a anaphylatoxin: TLQKKIEEIAAKYKHSVVKKCCYDGACVNNDETCEQRAARISLGPRCIKAFTECCVVASQLRANISHKDMQLGR
modifications: C5a anaphylatoxin

Key:
[1] = biological target: Epidermal Growth Factor, EGF; assay: Epidermal Growth Factor, EGF; [125I]EGF; type: binding; details: reference compound, QA/QC; read-out: Ref Kj
Complement C5a = Complement C5a (Homo sapiens, UniProt P21730); assay: Complement C5a (Human); [125I]BH-rC5a; type: binding; details: reference compound, QA/QC; read-out: Ref Kj
Complement C5a, sequence (P21730 whole entry): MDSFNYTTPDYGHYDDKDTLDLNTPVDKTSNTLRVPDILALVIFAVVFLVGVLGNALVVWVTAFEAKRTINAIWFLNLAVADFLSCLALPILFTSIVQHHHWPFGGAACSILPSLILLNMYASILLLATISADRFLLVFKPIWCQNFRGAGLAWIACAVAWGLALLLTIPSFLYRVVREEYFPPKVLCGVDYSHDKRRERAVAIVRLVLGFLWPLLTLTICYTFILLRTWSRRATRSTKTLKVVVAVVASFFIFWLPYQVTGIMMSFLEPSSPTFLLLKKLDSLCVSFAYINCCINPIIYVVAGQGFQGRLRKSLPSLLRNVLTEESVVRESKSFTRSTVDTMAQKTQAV

Molecule | Ki [1] | Ki (Complement C5a)
B1 | 3.2 nM | 
B2 |  | 0.619 nM
